Assay results: patent publication US20260167721A1 (ABLEXIS, published 2026)

What was measured:
[1] = biological target: T1, human CD3 (on human Pan-T cells or donor PBMC) (human, UniProt P07766 23-207; P04234 22-171; P09693 23-182; P20963 22-164); experiment: cell-based or functional assay
[2] = biological target: T1, human CD3 (on human Pan-T cells or …); experiment: cell-based or functional assay; remark: listed apart in the source

T1 sequence (P07766 23-207, chain 1 of 4): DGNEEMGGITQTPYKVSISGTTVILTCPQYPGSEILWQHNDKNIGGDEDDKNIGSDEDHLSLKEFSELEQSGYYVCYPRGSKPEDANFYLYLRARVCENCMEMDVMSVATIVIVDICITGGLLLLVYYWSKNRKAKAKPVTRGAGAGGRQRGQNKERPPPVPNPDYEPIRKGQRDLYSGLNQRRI
T1 sequence (P04234 22-171, chain 2 of 4): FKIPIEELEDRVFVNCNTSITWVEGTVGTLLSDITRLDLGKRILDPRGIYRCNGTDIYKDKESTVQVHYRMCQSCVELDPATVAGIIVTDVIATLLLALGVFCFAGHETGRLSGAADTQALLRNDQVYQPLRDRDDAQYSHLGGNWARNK
T1 sequence (P09693 23-182, chain 3 of 4): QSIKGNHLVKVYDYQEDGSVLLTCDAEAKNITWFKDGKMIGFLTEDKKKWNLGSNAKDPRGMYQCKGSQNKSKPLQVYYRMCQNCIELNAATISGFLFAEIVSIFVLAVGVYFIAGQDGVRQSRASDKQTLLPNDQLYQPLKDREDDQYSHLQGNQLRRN
T1 sequence (P20963 22-164, chain 4 of 4): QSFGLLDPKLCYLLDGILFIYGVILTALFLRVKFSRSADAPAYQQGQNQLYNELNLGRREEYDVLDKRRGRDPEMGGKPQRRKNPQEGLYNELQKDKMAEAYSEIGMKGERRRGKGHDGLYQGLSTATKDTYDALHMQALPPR

| RTCC Assay, Donor 0, EC50 [1] [nM] | RTCC Assay, Donor 0, gMFI max [1] [gMFI] | RTCC Assay, Donor 1, EC50 [1] [nM] | RTCC Assay, Donor 1, gMFI max [1] [gMFI] | RTCC Assay, Donor 2, EC50 [1] [nM] | RTCC Assay, Donor 2, gMFI max [1] [gMFI] | RTCC Assay, Donor 3, EC50 [1] [nM] | RTCC Assay, Donor 3, gMFI max [1] [gMFI] | Cytokine Release Assay (IFNγ), Donor 0, EC50 [2] [nM] | Cytokine Release Assay (IFNγ), Donor 0, gMFI max [2] [gMFI] | Cytokine Release Assay (IFNγ), Donor 1, EC50 [2] [nM] | Cytokine Release Assay (IFNγ), Donor 1, gMFI max [2] [gMFI] | Cytokine Release Assay (IFNγ), Donor 2, EC50 [2] [nM] | Cytokine Release Assay (IFNγ), Donor 2, gMFI max [2] [gMFI] | Cytokine Release Assay (IFNγ), Donor 3, EC50 [2] [nM] | Cytokine Release Assay (IFNγ), Donor 3, gMFI max [2] [gMFI] | Binder |
| --- | --- | --- | --- | --- | --- | --- | --- | --- | --- | --- | --- | --- | --- | --- | --- | --- |
| 23.7 | 59700 | 5.02 | 122000 | 6.68 | 82100 | 0.299 | 104000 | 0.308 | 2.92e+06 | 14.4 | 129000 | 16.4 | 712000 | 11.4 | 1.08e+06 | Low affinity Control (Control Humanized anti-CD3 (low affinity) scFv-Fc knob/TM with gemtuzumab arm) (bispecific antibody) scFv: EVQLVESGGGLVQPGGSLRLSCAASGFTFSTYAMNWVRQAPGKGLEWVGRIRSKYNNYATYYADSVKGRFTISRDDSKNTLYLQMNSLRAEDTAVYYCVRHGNFGDSYVSWFDYWGQGTLVTVSSGKPGSGKPGSGKPGSGKPGSQAVVTQEPSLTVSPGGTVTLTCGSSTGAVTTSNYANWVQQKPGKSPRGLIGGTNKRAPGVPARFSGSLLGGKAALTISGAQPEDEADYYCALWYSNHWVFGGGTKLTVLGGGGSDKTHTCPPCPAPEFEGGPSVFLFPPKPKDTLMISRTPEVTCVVVDVSHEDPEVKFNWYVDGVEVHNAKTKPREEQYNSTYRVVSVLTVLHQDWLNGKEYKCKVSNKALPASIEKTISKAKGQPREPQVYTLPPCREEMTKNQVSLWCLVKGFYPSDIAVEWESNGQPENNYKTTPPVLDSDGSFFLYSKLTVDKSRWQQGNVFSCSVMHEALHNHYTQKSLSLSPGK heavy: EVQLVQSGAEVKKPGSSVKVSCKASGYTITDSNIHWVRQAPGQSLEWIGYIYPYNGGTDYNQKFKNRATLTVDNPTNTAYMELSSLRSEDTAFYYCVNGNPWLAYWGQGTLVTVSSASTKGPSVFPLAPSSKSTSGGTAALGCLVKDYFPEPVTVSWNSGALTSGVHTFPAVLQSSGLYSLSSVVTVPSSSLGTQTYICNVNHKPSNTKVDKRVEPKSCDKTHTCPPCPAPEFEGGPSVFLFPPKPKDTLMISRTPEVTCVVVDVSHEDPEVKFNWYVDGVEVHNAKTKPREEQYNSTYRVVSVLTVLHQDWLNGKEYKCKVSNKALPASIEKTISKAKGQPREPQVCTLPPSREEMTKNQVSLSCAVKGFYPSDIAVEWESNGQPENNYKTTPPVLDSDGSFFLVSKLTVDKSRWQQGNVFSCSVMHEALHNRFTQKSLSLSPGK light: DIQLTQSPSTLSASVGDRVTITCRASESLDNYGIRFLTWFQQKPGKAPKLLMYAASNQGSGVPSRFSGSGSGTEFTLTISSLQPDDFATYYCQQTKEVPWSFGQGTKVEVKRTVAAPSVFIFPPSDEQLKSGTASVVCLLNNFYPREAKVQWKVDNALQSGNSQESVTEQDSKDSTYSLSSTLTLSKADYEKHKVYACEVTHQGLSSPVTKSFNRGEC |
| 1.49 | 23300 | 0.413 | 64800 | 0.717 | 50500 | 1.72 | 75800 | 8.38 | 555000 | – | 4320 | 13.4 | 18000 | 6.38 | 98500 | CD3 × CD33-BspAb38 (bispecific antibody) chain 1: not shown chain 2: EVQLVQSGAEVKKPGSSVKVSCKASGYTITDSNIHWVRQAPGQSLEWIGYIYPYNGGTDYNQKFKNRATLTVDNPTNTAYMELSSLRSEDTAFYYCVNGNPWLAYWGQGTLVTVSSASTKGPSVFPLAPSSKSTSGGTAALGCLVKDYFPEPVTVSWNSGALTSGVHTFPAVLQSSGLYSLSSVVTVPSSSLGTQTYICNVNHKPSNTKVDKRVEPKSCDKTHTCPPCPAPEFEGGPSVFLFPPKPKDTLMISRTPEVTCVVVDVSHEDPEVKFNWYVDGVEVHNAKTKPREEQYNSTYRVVSVLTVLHQDWLNGKEYKCKVSNKALPASIEKTISKAKGQPREPQVCTLPPSREEMTKNQVSLSCAVKGFYPSDIAVEWESNGQPENNYKTTPPVLDSDGSFFLVSKLTVDKSRWQQGNVFSCSVMHEALHNRFTQKSLSLSPGK chain 3: DIQLTQSPSTLSASVGDRVTITCRASESLDNYGIRFLTWFQQKPGKAPKLLMYAASNQGSGVPSRFSGSGSGTEFTLTISSLQPDDFATYYCQQTKEVPWSFGQGTKVEVKRTVAAPSVFIFPPSDEQLKSGTASVVCLLNNFYPREAKVQWKVDNALQSGNSQESVTEQDSKDSTYSLSSTLTLSKADYEKHKVYACEVTHQGLSSPVTKSFNRGEC |
| 0.126 | 24500 | 0.045 | 66000 | 0.121 | 52800 | 0.171 | 65800 | – | 187000 | – | 5440 | 0.177 | 14100 | 1.51 | 167000 | CD3 × CD33-BspAb116 (bispecific antibody) chain 1: NFMLTQPHSVSESPGKTVTISCTRSSGSIASNYVQWYQQRPGSSPTTVIYEDNQRPSGVPDRFSGSIDSSSNSASLTISGLKTEDEAYYYCQSFDSSNRVFGCGTKLTVLGGGGSGGGGSGGGGSGGGGSQVQLQESGPGLVKPSQTLSLTCTVSGGSISSGGYYWSWIRQHPGKCLEWIGYIYYSGSTYYNPSLKSRVTISVDTSKDQFSLKLSSVTAADTAVYYCARERKTSLPFDIWGQGTMVTVSSDKTHTCPPCPAPEFEGGPSVFLFPPKPKDTLMISRTPEVTCVVVDVSHEDPEVKFNWYVDGVEVHNAKTKPREEQYNSTYRVVSVLTVLHQDWLNGKEYKCKVSNKALPASIEKTISKAKGQPREPQVYTLPPCREEMTKNQVSLWCLVKGFYPSDIAVEWESNGQPENNYKTTPPVLDSDGSFFLYSKLTVDKSRWQQGNVFSCSVMHEALHNHYTQKSLSLSPGK chain 2: EVQLVQSGAEVKKPGSSVKVSCKASGYTITDSNIHWVRQAPGQSLEWIGYIYPYNGGTDYNQKFKNRATLTVDNPTNTAYMELSSLRSEDTAFYYCVNGNPWLAYWGQGTLVTVSSASTKGPSVFPLAPSSKSTSGGTAALGCLVKDYFPEPVTVSWNSGALTSGVHTFPAVLQSSGLYSLSSVVTVPSSSLGTQTYICNVNHKPSNTKVDKRVEPKSCDKTHTCPPCPAPEFEGGPSVFLFPPKPKDTLMISRTPEVTCVVVDVSHEDPEVKFNWYVDGVEVHNAKTKPREEQYNSTYRVVSVLTVLHQDWLNGKEYKCKVSNKALPASIEKTISKAKGQPREPQVCTLPPSREEMTKNQVSLSCAVKGFYPSDIAVEWESNGQPENNYKTTPPVLDSDGSFFLVSKLTVDKSRWQQGNVFSCSVMHEALHNRFTQKSLSLSPGK chain 3: DIQLTQSPSTLSASVGDRVTITCRASESLDNYGIRFLTWFQQKPGKAPKLLMYAASNQGSGVPSRFSGSGSGTEFTLTISSLQPDDFATYYCQQTKEVPWSFGQGTKVEVKRTVAAPSVFIFPPSDEQLKSGTASVVCLLNNFYPREAKVQWKVDNALQSGNSQESVTEQDSKDSTYSLSSTLTLSKADYEKHKVYACEVTHQGLSSPVTKSFNRGEC |
| 0.172 | 31600 | 0.01 | 70600 | 0.042 | 59200 | 0.053 | 82300 | 0.252 | 1.06e+06 | – | 5560 | 0.14 | 32900 | 1.76 | 317000 | CD3 × CD33-BspAb37 (bispecific antibody) chain 1: not shown chain 2: EVQLVQSGAEVKKPGSSVKVSCKASGYTITDSNIHWVRQAPGQSLEWIGYIYPYNGGTDYNQKFKNRATLTVDNPTNTAYMELSSLRSEDTAFYYCVNGNPWLAYWGQGTLVTVSSASTKGPSVFPLAPSSKSTSGGTAALGCLVKDYFPEPVTVSWNSGALTSGVHTFPAVLQSSGLYSLSSVVTVPSSSLGTQTYICNVNHKPSNTKVDKRVEPKSCDKTHTCPPCPAPEFEGGPSVFLFPPKPKDTLMISRTPEVTCVVVDVSHEDPEVKFNWYVDGVEVHNAKTKPREEQYNSTYRVVSVLTVLHQDWLNGKEYKCKVSNKALPASIEKTISKAKGQPREPQVCTLPPSREEMTKNQVSLSCAVKGFYPSDIAVEWESNGQPENNYKTTPPVLDSDGSFFLVSKLTVDKSRWQQGNVFSCSVMHEALHNRFTQKSLSLSPGK chain 3: DIQLTQSPSTLSASVGDRVTITCRASESLDNYGIRFLTWFQQKPGKAPKLLMYAASNQGSGVPSRFSGSGSGTEFTLTISSLQPDDFATYYCQQTKEVPWSFGQGTKVEVKRTVAAPSVFIFPPSDEQLKSGTASVVCLLNNFYPREAKVQWKVDNALQSGNSQESVTEQDSKDSTYSLSSTLTLSKADYEKHKVYACEVTHQGLSSPVTKSFNRGEC |
